# Assay results as given in IntAct's records for PubMed 30902834.
# B1: Protein-arginine N-acetylglucosaminyltransferase SseK3 (Salmonella typhimurium (strain SL1344)), P0DUJ7 (parent)
# chain: MFSRVRGFLSCQNYSHTATPAITLPSSGSANFAGVEYPLLPLDQHTPLLFQWFERNPSRFGENQIPIINTQQNPYLNNIINAAIIEKERTIGVLVDGNFSAGQKKALAKLEKQYENIKVIYNSDLDYSMYDKKLSDIYLENIAKIEAQPANVRDEYLLGEIKKSLNEVLKNNPEESLVSSHDKRLGHVRFDFYRNLFLLKGSNAFLEAGKHGCHHLQPGGGCIYLDADMLLTGKLGTLYLPDGIAVHVSRKGNSMSLENGIIAVNRSEHPALKKGLEIMHSKPYGDPYIDGVCGGLRHYFNCSIRHNYEEFCNFIEFKHEHIFMDTSSLTISSWR
# partner: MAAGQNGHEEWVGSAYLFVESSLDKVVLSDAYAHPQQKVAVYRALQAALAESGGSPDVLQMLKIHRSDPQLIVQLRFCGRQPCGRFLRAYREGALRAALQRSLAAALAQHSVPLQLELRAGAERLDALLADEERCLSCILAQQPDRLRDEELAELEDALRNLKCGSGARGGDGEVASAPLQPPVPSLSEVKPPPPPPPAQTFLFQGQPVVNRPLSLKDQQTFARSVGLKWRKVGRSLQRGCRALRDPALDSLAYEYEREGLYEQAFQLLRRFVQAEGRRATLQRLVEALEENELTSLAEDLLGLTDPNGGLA
# B2: Protein-arginine N-acetylglucosaminyltransferase SseK3 (Salmonella typhimurium (strain SL1344)), P0DUJ7 (parent)
# chain: B1 chain
# Variants of: B1
# Conditions: with tradd_human TRADD
row,Variant,effect of a mutation on the interaction
1,E258A,disrupting interaction

# Variants of: B2
# Conditions: with tr10b_human TNFRSF10B
row,Variant,effect of a mutation on the interaction
1,E258A,disrupting interaction
